Results reported in publication PMC6733935, “A convenient and efficient total solid-phase synthesis of DOTA-functionalized tumor-targeting peptides for PET imaging of cancer” (EJNMMI Research, 2019).
Square brackets hold non-standard residues; d marks the D form. Peptide text beside a SMILES is read from it. * marks the point of attachment. DOTA = O=C(O)CN1CCN(CC(=O)O)CCN(CC(=O)*)CCN(CC(=O)O)CC1; Cha = N[C@@H](CC1CCCCC1)C(=O)O; 4Abz = Nc1ccc(C(=O)O)cc1; Nle = CCCC[C@H](N)C(=O)O; Ahx = NCCCCCC(=O)O

Experiments:
[1] = molecular target: T1, BN/GRP receptor-positive MDA-MB-231 human breast cancer cells (Homo sapiens, UniProt P30550); experiment: Saturation binding assay on MDA-MB-231 cells; conditions: n = 3-5 experiments; for Bmax (apparent number of binding sites per cell): SD < 15%
T1 construct: BN/GRP receptor-positive MDA-MB-231, MCF7, T47D human breast cancer, and PC3 human prostate cancer lines; host or cells: MDA-MB-231, MCF7, T47D (human breast cancer), PC3 (human prostate cancer); intact cells
Experimental: (§1) The cell binding of ^68Ga-radiolabeled peptides into BN/GRP receptor-positive MDA-MB-231, MCF7, T47D human breast cancer, and PC3 human prostate cancer lines (American Type Culture Collection, Rockville, MD, USA) was performed according to the method described previously. In brief, ∼ 300,000 cells (in 300 μL in low-serum media) were incubated with various amounts of radiopeptides, ranging between 0.1 and 25 nM of peptide (prepared from the serial dilutions of HPLC-purified radiopeptides), in duplicate for 60 min at room temperature. The initial concentrations of ^68Ga-labeled peptides were determined according to a well-established HPLC technique with simultaneous detection by UV absorbance. As the amount of BN peptide in the reaction mixture was too small to be detected by UV absorption at 220 nm, the radioactive peptide chromatograms from the HPLC analysis were compared (with UV chromatograms) with those of known concentrations of the corresponding nonradioactive peptides for the mass determination. Incubation was terminated by dilution with cold saline (300 μL) and the cells were pelleted by centrifugation. The cell pellets was then rapidly washed with cold saline to remove any unbound peptide and centrifuged to collect supernatants. Radioactivity in the cell pellet and the washings was measured in a γ-counter. Non-specific binding was determined in the presence of ~ 200-fold molar excess of unlabeled BN peptide. Specific binding is calculated by subtracting the non-specifically bound radioactivity from that of the total binding. The dissociation constant (Kd) was calculated using a plot of cell bound activity versus the concentration of the radioligand using GraphPad Prism software (GraphPad Software Inc., San Diego, CA, USA).

[2] = molecular target: T2, BN/GRP receptor-positive MCF7 human breast cancer cells (Homo sapiens, UniProt P30550); experiment: Saturation binding assay on MCF7 cells; conditions: n = 3-5 experiments; for Bmax (apparent number of binding sites per cell): SD < 15%
T2 construct: BN/GRP receptor-positive MDA-MB-231, MCF7, T47D human breast cancer, and PC3 human prostate cancer lines; host or cells: MDA-MB-231, MCF7, T47D (human breast cancer), PC3 (human prostate cancer); intact cells
Experimental: as §1

in vivo = experiment: in vivo; design: species or system Balb/c mice; conditions: Balb/c, mouse, iv; for dose excreted at 1 h / dose excreted at 2 h / tissue uptake at 1 h / tissue uptake at 2 h: total radioactivity
Experimental: Approval for the animal protocol used in this study was obtained from the Institutional Animal Care and Use Committee. Animal studies were conducted according to the international regulations governing the safe and proper use of laboratory animals. In vivo biodistribution were performed on healthy Balb/c mice (n = 3–5 in each group, body weight 19–22 g) at 1 and 2 h after intravenous injection of the HPLC-purified radiopeptide (100 μL, 15–20 μCi, total peptide dose ~ 20 ng) via the lateral tail vein. The mice were sacrificed by cervical dislocation at specified time points and blood samples were withdrawn with a syringe from the heart. Major organs such as lungs, stomach, spleen, pancreas, intestines, liver, kidneys, etc. were isolated, weighed, and radioactivity in each organs and tissues were measured using a γ-scintillation counter. Uptake of radioactivity in the tissues and organs was expressed as the percent injected dose per gram (% ID/g) of tissue/organ, which was calculated by comparison with standard solutions representing 10% of the injected dose per animal. For the clearance studies, radioactivity in the urine with bladder and feces is expressed as the percent of the injected dose per tissue (% ID). Values are expressed as mean ± SD for a group of 3-5 animals at each time point.

MDA-MB-231 tumors = experiment: in vivo; assay type: in vivo, nude mice; conditions: for Radioactivity in Urine + bladder / Uptake in Blood / Uptake in Intestines (measured without their contents) / Uptake in Kidneys / Uptake in Liver / Uptake in Lungs / Uptake in Muscle / Uptake in Pancreas / Uptake in Spleen / Uptake in Stomach: female, nude, mouse, in vivo; for Uptake in Tumor: nude mice with MDA-MB-231 tumors, mean ± SD, n = 3-5
Experimental: BN/GRP receptor-positive MDA-MB-231 and PC3 cell lines (American Type Culture Collection, Rockville, USA) were grown as monolayers at 37 °C in a humidified atmosphere containing RPMI-1640 culture media with 10% fetal bovine serum (FBS) in tissue culture flasks. Twenty-four hours prior to conducting the tumor implantation, the media was replaced with RPMI-1640/10% FBS. The cells were grown to 80-90% confluency and harvested by trypsinization. After centrifugation, about 50 million cells were suspended in 1 mL media for implantation into mice. To prepare cells for inoculation, MDA-MB-231 or PC3 cancer cells with media were centrifuged, the media decanted, and the cell pellet was mixed with phosphate-buffered saline (PBS) to reach a concentration of approximately 5 million cells per 100 μL PBS. Human MDA-MB-231 breast cancer xenografts female mouse models were used for in vivo tumor-targeting experiments. For the implantation of tumor xenografts, approximately five million MDA-MB-231 cells in suspension of 100 μL sterile PBS were injected subcutaneously into the left thigh of each mouse. Tumors were allowed to grow for 4-6 weeks by which tumors had reached weights of 200-300 mg. After sufficient growth of tumors, animals were injected with 20-30 μCi of the radiotracers and the animals were sacrificed at specified time points. The uptake of ^68Ga-radiolabeled peptides in the tumors and other major body organs was calculated by γ-counting as described above.

[3] = ~300,000 cells, 0.1-25 nM radiopeptide, 60 min, room temperature, mean ± SD
[4] = Uptake in Intestines (measured without their contents)

Structure (SMILES): CCCC[C@H](NC(=O)[C@H](Cc1c[nH]cn1)NC(=O)[C@H](CC1CCCCC1)NC(=O)[C@@H](NC(=O)[C@H](C)NC(=O)[C@H](Cc1c[nH]c2ccccc12)NC(=O)[C@H](CCC(N)=O)NC(=O)[C@H](CS)NC(=O)CNC(=O)CNC(=O)c1ccc(NC(=O)CN2CCN(CC(=O)O)CCN(CC(=O)O)CCN(CC(=O)O)CC2)cc1)C(C)C)C(=O)N[C@@H](CCSC)C(N)=O [^68Ga-DOTA-Abz-BN Tris-, metal not drawn] ({DOTA-4Abz}-GGCQWAV[Cha]H[Nle]M-NH2)
- Bmax (apparent number of binding sites per cell) [1]: 5.89 × 10^5 sites/cell
- Bmax (apparent number of binding sites per cell) [2]: 4.86 × 10^5 sites/cell
- %ID excreted in Feces (in vivo; 1 h): 0.90 ± 0.10 %ID
- %ID excreted in Urine (in vivo; 1 h): 43.0 ± 8.70 %ID
- Uptake in Blood (in vivo; 1 h): 0.66 ± 0.13 %ID/g
- Uptake in Bone (in vivo; 1 h): 0.22 ± 0.05 %ID/g
- Uptake in Intestines (measured without their contents) (in vivo; 1 h): 0.79 ± 0.16 %ID/g
- Uptake in Kidneys (in vivo; 1 h): 4.0 ± 0.82 %ID/g
- Uptake in Liver (in vivo; 1 h): 1.59 ± 0.23 %ID/g
- Uptake in Lungs (in vivo; 1 h): 0.58 ± 0.10 %ID/g
- Uptake in Pancreas (in vivo; 1 h): 1.48 ± 0.12 %ID/g
- Uptake in Spleen (in vivo; 1 h): 0.11 ± 0.01 %ID/g
- Uptake in Stomach (in vivo; 1 h): 1.82 ± 0.36 %ID/g
- %ID excreted in Feces (in vivo; 2 h): 0.59 ± 0.08 %ID
- %ID excreted in Urine (in vivo; 2 h): 50.0 ± 3.45 %ID
- Uptake in Blood (in vivo; 2 h): 0.31 ± 0.05 %ID/g
- Uptake in Bone (in vivo; 2 h): 0.12 ± 0.01 %ID/g
- Uptake in Intestines (measured without their contents) (in vivo; 2 h): 0.61 ± 0.09 %ID/g
- Uptake in Kidneys (in vivo; 2 h): 2.86 ± 0.37 %ID/g
- Uptake in Liver (in vivo; 2 h): 0.91 ± 0.15 %ID/g
- Uptake in Lungs (in vivo; 2 h): 0.40 ± 0.08 %ID/g
- Uptake in Pancreas (in vivo; 2 h): 0.97 ± 0.05 %ID/g
- Uptake in Spleen (in vivo; 2 h): 0.10 ± 0.01 %ID/g
- Uptake in Stomach (in vivo; 2 h): 0.52 ± 0.12 %ID/g
- Radioactivity in Urine + bladder (MDA-MB-231 tumors; 1 h): 58.0 ± 6.25 % injected dose per tissue
- Uptake in Blood (MDA-MB-231 tumors; 1 h): 0.93 ± 0.22 % ID/g
- Uptake in Intestines (measured without their contents) (MDA-MB-231 tumors; 1 h): 1.01 ± 0.17 % ID/g
- Uptake in Kidneys (MDA-MB-231 tumors; 1 h): 6.52 ± 0.60 % ID/g
- Uptake in Liver (MDA-MB-231 tumors; 1 h): 2.28 ± 0.31 % ID/g
- Uptake in Lungs (MDA-MB-231 tumors; 1 h): 1.82 ± 0.30 % ID/g
- Uptake in Muscle (MDA-MB-231 tumors; 1 h): 0.36 ± 0.07 % ID/g
- Uptake in Pancreas (MDA-MB-231 tumors; 1 h): 1.81 ± 0.22 % ID/g
- Uptake in Spleen (MDA-MB-231 tumors; 1 h): 0.18 ± 0.03 % ID/g
- Uptake in Stomach (MDA-MB-231 tumors; 1 h): 1.0 ± 0.20 % ID/g
- Radioactivity in Urine + bladder (MDA-MB-231 tumors; 2 h): 65.0 ± 9.13 % injected dose per tissue
- Uptake in Blood (MDA-MB-231 tumors; 2 h): 0.64 ± 0.16 % ID/g
- Uptake in Intestines (measured without their contents) (MDA-MB-231 tumors; 2 h): 0.76 ± 0.12 % ID/g
- Uptake in Kidneys (MDA-MB-231 tumors; 2 h): 3.96 ± 0.48 % ID/g
- Uptake in Liver (MDA-MB-231 tumors; 2 h): 1.71 ± 0.20 % ID/g
- Uptake in Lungs (MDA-MB-231 tumors; 2 h): 1.26 ± 0.25 % ID/g
- Uptake in Muscle (MDA-MB-231 tumors; 2 h): 0.28 ± 0.04 % ID/g
- Uptake in Pancreas (MDA-MB-231 tumors; 2 h): 0.93 ± 0.15 % ID/g
- Uptake in Spleen (MDA-MB-231 tumors; 2 h): 0.09 ± 0.02 % ID/g
- Uptake in Stomach (MDA-MB-231 tumors; 2 h): 0.52 ± 0.13 % ID/g
- Uptake in Tumor (MDA-MB-231 tumors; 1 h p.i.): 2.15 ± 0.33 % ID/g
- Uptake in Tumor (MDA-MB-231 tumors; 2 h p.i.): 1.37 ± 0.25 % ID/g

Structure (SMILES): CCCC[C@H](NC(=O)[C@H](Cc1c[nH]cn1)NC(=O)[C@H](CC1CCCCC1)NC(=O)[C@@H](NC(=O)[C@H](C)NC(=O)[C@H](Cc1c[nH]c2ccccc12)NC(=O)[C@H](CCC(N)=O)NC(=O)[C@H](CS)NC(=O)CNC(=O)CNC(=O)CCCCCNC(=O)CN1CCN(CC(=O)O)CCN(CC(=O)O)CCN(CC(=O)O)CC1)C(C)C)C(=O)N[C@@H](CCSC)C(N)=O [^68Ga-DOTA-Ahx-BN Cyclen, metal not drawn] ({DOTA-Ahx}-GGCQWAV[Cha]H[Nle]M-NH2)
- Bmax (apparent number of binding sites per cell) [1]: 5.13 × 10^5 sites/cell
- Kd [1, 3]: 12.7 ± 2.94 nM
- Bmax (apparent number of binding sites per cell) [2]: 6.90 × 10^5 sites/cell
- Kd [2, 3]: 9.8 ± 1.64 nM
- Uptake in Lungs (in vivo; 2 h): 0.10 ± 0.02 %ID/g
- dose excreted at 1 h (in vivo; %ID excreted in Feces): 0.85 ± 0.17%
- dose excreted at 2 h (in vivo; %ID excreted in Feces): 0.76 ± 0.11%
- dose excreted at 1 h (in vivo; %ID excreted in Urine): 80 ± 9.8%
- dose excreted at 2 h (in vivo; %ID excreted in Urine): 64 ± 6.35%
- tissue uptake at 1 h (in vivo; Uptake in Blood): 0.18 ± 0.04 %ID/g
- tissue uptake at 2 h (in vivo; Uptake in Blood): 0.11 ± 0.03 %ID/g
- tissue uptake at 1 h (in vivo; Uptake in Bone): 0.15 ± 0.03 %ID/g
- tissue uptake at 2 h (in vivo; Uptake in Bone): 0.06 %ID/g
- tissue uptake at 1 h (in vivo; [4]): 0.64 ± 0.12 %ID/g
- tissue uptake at 2 h (in vivo; [4]): 0.41 ± 0.05 %ID/g
- tissue uptake at 1 h (in vivo; Uptake in Kidneys): 1.98 ± 0.34 %ID/g
- tissue uptake at 2 h (in vivo; Uptake in Kidneys): 1.41 ± 0.27 %ID/g
- tissue uptake at 1 h (in vivo; Uptake in Liver): 0.61 ± 0.1 %ID/g
- tissue uptake at 2 h (in vivo; Uptake in Liver): 0.46 ± 0.07 %ID/g
- tissue uptake at 1 h (in vivo; Uptake in Lungs): 0.19 ± 0.04 %ID/g
- tissue uptake at 1 h (in vivo; Uptake in Pancreas): 1.49 ± 0.12 %ID/g
- tissue uptake at 2 h (in vivo; Uptake in Pancreas): 1.02 ± 0.15 %ID/g
- tissue uptake at 1 h (in vivo; Uptake in Spleen): 0.13 ± 0.01 %ID/g
- tissue uptake at 2 h (in vivo; Uptake in Spleen): 0.09 ± 0.01 %ID/g
- tissue uptake at 1 h (in vivo; Uptake in Stomach): 1.48 ± 0.22 %ID/g
- tissue uptake at 2 h (in vivo; Uptake in Stomach): 0.43 ± 0.11 %ID/g
- washout from the tumors over 2 h (MDA-MB-231 tumors; MDA-MB-231 tumors, nude mice, 1 h vs 2 h p.i.): 28%
- Uptake in Liver (MDA-MB-231 tumors; 1 h): 1.02 ± 0.16 % ID/g
- Uptake in Lungs (MDA-MB-231 tumors; 1 h): 0.55 ± 0.10 % ID/g
- Uptake in Liver (MDA-MB-231 tumors; 2 h): 0.91 ± 0.10 % ID/g
- Uptake in Tumor (MDA-MB-231 tumors; 1 h p.i.): 2.32 ± 0.25 % ID/g
- Uptake in Tumor (MDA-MB-231 tumors; 2 h p.i.): 1.65 ± 0.19 % ID/g
